How the values were obtained:
[1] = target: Ubiquitin carboxy-terminal hydrolase 8 (Homo sapiens (Human)) (UniProt P40818)
[2] = target: T1, Caspase-7 (Homo sapiens (Human)) (UniProt P55210)
T1 sequence: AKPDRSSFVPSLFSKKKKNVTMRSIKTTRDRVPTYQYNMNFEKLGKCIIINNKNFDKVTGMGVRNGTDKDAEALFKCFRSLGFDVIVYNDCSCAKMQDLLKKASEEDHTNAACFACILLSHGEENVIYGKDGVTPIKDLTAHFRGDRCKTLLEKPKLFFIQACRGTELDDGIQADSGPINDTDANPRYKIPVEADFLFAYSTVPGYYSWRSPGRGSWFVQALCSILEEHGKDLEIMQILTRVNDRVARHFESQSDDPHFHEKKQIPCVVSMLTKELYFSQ

[3] = target: DPP7 (Homo sapiens (Human)) (UniProt Q9UHL4)
[4] = target: Ubiquitin carboxy-terminal hydrolase 10 (Homo sapiens (Human)) (UniProt Q14694)
Ubiquitin carboxy-terminal hydrolase 10 (Homo sapiens (Human)), sequence (Q14694 whole entry): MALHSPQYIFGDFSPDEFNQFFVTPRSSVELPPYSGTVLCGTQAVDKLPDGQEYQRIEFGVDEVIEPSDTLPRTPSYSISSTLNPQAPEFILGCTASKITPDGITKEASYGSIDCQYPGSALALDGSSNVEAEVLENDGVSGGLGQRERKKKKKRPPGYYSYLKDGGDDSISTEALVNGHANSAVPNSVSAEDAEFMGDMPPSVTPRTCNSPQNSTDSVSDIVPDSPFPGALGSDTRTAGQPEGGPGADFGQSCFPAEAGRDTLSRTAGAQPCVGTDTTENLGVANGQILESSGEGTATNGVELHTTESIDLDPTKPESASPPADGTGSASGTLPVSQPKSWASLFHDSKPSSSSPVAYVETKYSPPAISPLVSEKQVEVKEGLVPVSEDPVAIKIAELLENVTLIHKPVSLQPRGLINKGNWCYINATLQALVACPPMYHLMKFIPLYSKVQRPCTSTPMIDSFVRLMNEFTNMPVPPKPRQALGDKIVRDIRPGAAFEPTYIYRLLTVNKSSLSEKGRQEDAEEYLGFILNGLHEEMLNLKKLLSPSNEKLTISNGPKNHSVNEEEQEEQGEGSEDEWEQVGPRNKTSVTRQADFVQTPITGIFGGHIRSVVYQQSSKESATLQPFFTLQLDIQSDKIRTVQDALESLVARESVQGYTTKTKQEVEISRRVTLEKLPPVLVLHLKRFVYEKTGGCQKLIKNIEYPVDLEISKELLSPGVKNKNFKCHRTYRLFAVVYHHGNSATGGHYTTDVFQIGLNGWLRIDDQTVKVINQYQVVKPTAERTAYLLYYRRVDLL

[5] = target: Cathepsin S (Homo sapiens (Human)) (UniProt P25774)
[6] = target: DPP9 (Homo sapiens (Human)) (UniProt Q86TI2)
[7] = target: T2, Caspase-6 (Homo sapiens (Human)) (UniProt P55212)
T2 sequence: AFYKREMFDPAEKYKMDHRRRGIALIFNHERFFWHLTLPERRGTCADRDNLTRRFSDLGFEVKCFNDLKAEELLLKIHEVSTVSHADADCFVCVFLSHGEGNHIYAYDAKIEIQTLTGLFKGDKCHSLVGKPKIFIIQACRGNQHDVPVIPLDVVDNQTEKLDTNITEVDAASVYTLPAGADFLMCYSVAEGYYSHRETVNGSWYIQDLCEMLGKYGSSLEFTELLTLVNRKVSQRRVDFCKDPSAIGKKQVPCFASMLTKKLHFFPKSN

[8] = target: Ubiquitin carboxy-terminal hydrolase 5 (Homo sapiens (Human)) (UniProt P45974)
Ubiquitin carboxy-terminal hydrolase 5 (Homo sapiens (Human)), sequence (P45974 whole entry): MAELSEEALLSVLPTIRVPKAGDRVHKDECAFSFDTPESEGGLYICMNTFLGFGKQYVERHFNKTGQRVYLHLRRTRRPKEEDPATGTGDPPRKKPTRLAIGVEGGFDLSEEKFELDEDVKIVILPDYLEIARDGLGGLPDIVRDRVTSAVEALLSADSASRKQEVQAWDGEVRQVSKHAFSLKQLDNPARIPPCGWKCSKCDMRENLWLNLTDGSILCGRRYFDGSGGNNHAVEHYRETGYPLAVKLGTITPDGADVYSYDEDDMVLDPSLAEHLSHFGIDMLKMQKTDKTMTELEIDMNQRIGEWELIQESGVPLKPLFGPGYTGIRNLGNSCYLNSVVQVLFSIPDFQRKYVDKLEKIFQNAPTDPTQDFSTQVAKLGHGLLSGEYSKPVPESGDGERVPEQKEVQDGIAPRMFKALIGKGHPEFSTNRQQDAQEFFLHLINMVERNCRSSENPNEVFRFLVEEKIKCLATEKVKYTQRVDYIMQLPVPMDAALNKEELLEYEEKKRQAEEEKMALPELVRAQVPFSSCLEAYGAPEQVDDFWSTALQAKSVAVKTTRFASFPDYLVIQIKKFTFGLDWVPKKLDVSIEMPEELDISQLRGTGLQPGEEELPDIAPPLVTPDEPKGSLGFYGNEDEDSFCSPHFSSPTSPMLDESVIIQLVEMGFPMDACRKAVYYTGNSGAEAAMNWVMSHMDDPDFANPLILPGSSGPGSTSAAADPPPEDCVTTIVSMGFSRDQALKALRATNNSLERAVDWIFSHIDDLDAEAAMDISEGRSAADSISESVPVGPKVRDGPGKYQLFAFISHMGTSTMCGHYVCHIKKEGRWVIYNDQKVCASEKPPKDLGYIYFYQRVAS

[9] = target: Cathepsin B (Homo sapiens (Human)) (UniProt P07858)
[10] = target: Beta secretase (Homo sapiens (Human)) (UniProt P56817)
[11] = target: Cathepsin V (Homo sapiens (Human)) (UniProt O60911)
[12] = target: T3, Ubiquitin carboxy-terminal hydrolase 2 (Homo sapiens (Human)) (UniProt O75604)
T3 sequence: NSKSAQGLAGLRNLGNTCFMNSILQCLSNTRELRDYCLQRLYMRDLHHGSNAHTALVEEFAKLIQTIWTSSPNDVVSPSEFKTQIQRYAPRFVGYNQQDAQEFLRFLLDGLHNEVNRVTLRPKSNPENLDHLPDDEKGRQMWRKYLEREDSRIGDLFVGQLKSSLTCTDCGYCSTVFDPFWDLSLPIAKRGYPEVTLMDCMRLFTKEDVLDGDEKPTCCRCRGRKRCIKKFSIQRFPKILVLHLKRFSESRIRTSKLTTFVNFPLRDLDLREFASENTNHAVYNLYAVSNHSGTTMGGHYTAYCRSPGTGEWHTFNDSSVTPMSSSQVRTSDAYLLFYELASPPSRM

[13] = target: Ataxin3 (Homo sapiens (Human)) (UniProt P54252)
Ataxin3 (Homo sapiens (Human)), sequence (P54252 whole entry): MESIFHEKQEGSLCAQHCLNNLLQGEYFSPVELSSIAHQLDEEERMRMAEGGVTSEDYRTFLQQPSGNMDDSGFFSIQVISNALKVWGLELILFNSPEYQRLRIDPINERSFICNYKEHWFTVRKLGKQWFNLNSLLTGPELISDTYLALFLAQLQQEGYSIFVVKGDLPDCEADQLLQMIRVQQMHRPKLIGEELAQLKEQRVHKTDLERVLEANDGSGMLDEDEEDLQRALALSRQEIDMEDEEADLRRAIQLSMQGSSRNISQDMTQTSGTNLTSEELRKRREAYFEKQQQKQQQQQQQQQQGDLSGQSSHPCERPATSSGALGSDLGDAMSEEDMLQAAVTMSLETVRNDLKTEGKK

[14] = target: Ubiquitin carboxy-terminal hydrolase 7 (Homo sapiens (Human)) (UniProt Q93009)
[15] = target: Ubiquitin carboxy-terminal hydrolase L1 (Homo sapiens (Human)) (UniProt P09936)
[16] = target: T4, Ubiquitin carboxy-terminal hydrolase L3 (Homo sapiens (Human)) (UniProt P15374)
T4 sequence: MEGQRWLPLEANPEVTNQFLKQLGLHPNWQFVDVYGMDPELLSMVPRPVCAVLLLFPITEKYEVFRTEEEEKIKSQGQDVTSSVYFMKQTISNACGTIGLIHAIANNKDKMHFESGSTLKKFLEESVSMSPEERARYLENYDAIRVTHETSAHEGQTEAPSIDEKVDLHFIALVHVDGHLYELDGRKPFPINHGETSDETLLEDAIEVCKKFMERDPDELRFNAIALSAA

[17] = target: Activated Protein C (Homo sapiens (Human)) (UniProt P04070)
Activated Protein C (Homo sapiens (Human)), sequence (P04070 43-461): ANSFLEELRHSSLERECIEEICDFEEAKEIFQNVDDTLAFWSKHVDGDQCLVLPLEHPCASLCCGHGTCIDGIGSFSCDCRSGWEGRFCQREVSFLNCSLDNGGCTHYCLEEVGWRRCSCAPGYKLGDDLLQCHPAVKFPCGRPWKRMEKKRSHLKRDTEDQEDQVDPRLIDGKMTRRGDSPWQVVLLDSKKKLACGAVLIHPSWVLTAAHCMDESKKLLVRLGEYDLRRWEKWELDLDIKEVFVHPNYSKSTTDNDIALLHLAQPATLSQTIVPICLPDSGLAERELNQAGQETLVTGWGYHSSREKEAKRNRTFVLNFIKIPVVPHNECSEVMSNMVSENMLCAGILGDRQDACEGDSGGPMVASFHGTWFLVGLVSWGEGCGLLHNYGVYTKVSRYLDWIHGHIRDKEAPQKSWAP

[18] = target: Matrix metalloprotease 9 (mutant Q279R) (Homo sapiens (Human)) (UniProt P14780)
[19] = target: FAP (Homo sapiens (Human)) (UniProt Q12884)
FAP (Homo sapiens (Human)), sequence (Q12884 26-760 limits assumed): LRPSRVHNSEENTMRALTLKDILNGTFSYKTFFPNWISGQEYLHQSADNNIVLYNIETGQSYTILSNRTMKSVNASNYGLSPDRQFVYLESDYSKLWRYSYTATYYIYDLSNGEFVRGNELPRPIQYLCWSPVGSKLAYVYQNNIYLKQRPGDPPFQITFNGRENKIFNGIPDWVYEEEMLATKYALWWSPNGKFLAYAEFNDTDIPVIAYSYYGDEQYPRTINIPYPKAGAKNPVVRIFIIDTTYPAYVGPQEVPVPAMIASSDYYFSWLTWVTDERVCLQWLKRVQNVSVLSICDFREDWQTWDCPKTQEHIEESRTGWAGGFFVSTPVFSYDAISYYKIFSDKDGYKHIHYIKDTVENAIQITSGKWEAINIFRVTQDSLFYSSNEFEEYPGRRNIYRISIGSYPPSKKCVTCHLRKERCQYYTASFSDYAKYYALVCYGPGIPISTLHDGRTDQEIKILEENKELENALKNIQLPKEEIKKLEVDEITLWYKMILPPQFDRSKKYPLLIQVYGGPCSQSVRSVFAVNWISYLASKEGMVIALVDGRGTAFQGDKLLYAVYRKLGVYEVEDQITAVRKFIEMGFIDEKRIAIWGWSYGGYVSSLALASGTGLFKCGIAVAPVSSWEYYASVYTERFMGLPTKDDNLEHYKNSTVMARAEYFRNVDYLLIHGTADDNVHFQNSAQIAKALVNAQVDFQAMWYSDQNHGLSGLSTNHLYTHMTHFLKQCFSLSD

[20] = target: T5, Cathepsin F (Homo sapiens (Human)) (UniProt Q9UBX1)
T5 sequence: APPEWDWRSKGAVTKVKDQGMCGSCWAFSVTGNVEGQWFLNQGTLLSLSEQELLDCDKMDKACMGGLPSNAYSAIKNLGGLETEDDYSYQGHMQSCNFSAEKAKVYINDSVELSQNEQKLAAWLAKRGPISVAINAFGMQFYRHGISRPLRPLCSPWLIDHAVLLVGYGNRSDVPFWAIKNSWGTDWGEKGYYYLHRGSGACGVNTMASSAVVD

[21] = target: T6, Caspase-3 (Homo sapiens (Human)) (UniProt P42574)
T6 sequence: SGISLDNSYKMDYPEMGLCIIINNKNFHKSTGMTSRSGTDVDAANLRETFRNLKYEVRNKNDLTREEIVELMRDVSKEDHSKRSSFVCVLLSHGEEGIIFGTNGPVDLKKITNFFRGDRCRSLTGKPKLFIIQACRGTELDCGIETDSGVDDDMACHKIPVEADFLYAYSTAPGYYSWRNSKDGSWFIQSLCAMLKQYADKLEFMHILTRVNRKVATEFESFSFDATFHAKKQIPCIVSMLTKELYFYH

[22] = target: Caspase-8 (Homo sapiens (Human)) (UniProt Q14790)
Caspase-8 (Homo sapiens (Human)), sequence (Q14790 217-479 limits assumed): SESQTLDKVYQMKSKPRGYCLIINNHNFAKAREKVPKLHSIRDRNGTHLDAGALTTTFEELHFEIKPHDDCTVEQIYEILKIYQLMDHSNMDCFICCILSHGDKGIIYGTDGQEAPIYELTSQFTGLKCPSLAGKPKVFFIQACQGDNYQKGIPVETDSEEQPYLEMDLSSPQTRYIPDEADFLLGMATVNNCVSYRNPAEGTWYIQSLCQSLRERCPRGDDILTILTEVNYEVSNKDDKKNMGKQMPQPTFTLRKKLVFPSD

[23] = target: T7, A20 (Homo sapiens (Human)) (UniProt P21580)
T7 sequence: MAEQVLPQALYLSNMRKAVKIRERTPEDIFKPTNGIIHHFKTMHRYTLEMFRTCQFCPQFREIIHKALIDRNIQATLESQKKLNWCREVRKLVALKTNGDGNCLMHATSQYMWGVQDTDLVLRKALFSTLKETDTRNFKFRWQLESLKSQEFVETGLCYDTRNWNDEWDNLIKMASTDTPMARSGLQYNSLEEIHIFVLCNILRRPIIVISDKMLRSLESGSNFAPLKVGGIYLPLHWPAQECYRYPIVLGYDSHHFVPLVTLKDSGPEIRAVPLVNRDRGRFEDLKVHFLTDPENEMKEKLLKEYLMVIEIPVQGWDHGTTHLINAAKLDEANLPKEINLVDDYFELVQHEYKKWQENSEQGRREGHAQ

| Substance | Percentage inhibition (%) at 10 µM [1] | Percentage inhibition (%) at 10 µM [2] | Percentage inhibition (%) at 10 µM [3] | Percentage inhibition (%) at 10 µM [4] | Percentage inhibition (%) at 10 µM [5] | Percentage inhibition (%) at 10 µM [6] | Percentage inhibition (%) at 10 µM [7] | Percentage inhibition (%) at 10 µM [8] | Percentage inhibition (%) at 10 µM [9] | Percentage inhibition (%) at 10 µM [10] | Percentage inhibition (%) at 10 µM [11] | Percentage inhibition (%) at 10 µM [12] | Percentage inhibition (%) at 10 µM [13] | Percentage inhibition (%) at 10 µM [14] | Percentage inhibition (%) at 10 µM [15] | Percentage inhibition (%) at 10 µM [16] | Percentage inhibition (%) at 10 µM [17] | Percentage inhibition (%) at 10 µM [18] | Percentage inhibition (%) at 1 µM [19] | Percentage inhibition (%) at 10 µM [20] | other results |
| --- | --- | --- | --- | --- | --- | --- | --- | --- | --- | --- | --- | --- | --- | --- | --- | --- | --- | --- | --- | --- | --- |
| Hex-[Cys(tMeBn(DOTA-AET))-Pro-Pro-Thr-Gln-Phe-Cys]-OH (peptide) | 1% | -7% | -7% | -1% | -23% | -5% | -3% | -2% | 2% | 7% | -1% | -1% | -1% | 1% | 4% | 0% | 1% | 2% | 97% | -25% | Percentage inhibition (%) at 10 µM [21]: -1%; Percentage inhibition (%) at 10 µM [22]: -3%; Percentage inhibition (%) at 10 µM [23]: 0% |
| Hex-[Cys(tMeBn(DOTA-PP))-Pro-Pro-Thr-Gln-Phe-Cys]-Asp-NH2 (peptide) | 6% | -3% | -3% | 5% | 18% | 0% | -1% | 46% | 36% | -5% | -18% | 7% | 10% | 5% | 4% | 14% | 8% | 2% | 98% | -24% | Percentage inhibition (%) at 10 µM [21]: -2%; Percentage inhibition (%) at 10 µM [22]: 0%; Percentage inhibition (%) at 10 µM [23]: -4% |
